Laboratory results reported in patent US20140087995A1 (published 2014).
Numbering of substitutions follows the chain as printed. Numbered stars: 1 amine (or outer) side, 2 acyl side, 3 side chain; on linkers, the order of the positions; unused ones are H or OH. Bridge positions count the residues as written; N and C are the ends. Side chains are listed from the residue outwards. Ends that are not written are not given here. * marks the point of attachment. C20 diacid = O=C(O)CCCCCCCCCCCCCCCCCCC(=O)*; γGlu = O=C(O)[C@H](CCC(=O)[*:2])N[*:1]; AEEA = NCCOCCOCC(=O)O

Tests used:
[1] = target: T1, human amylin 3(a) receptor (human calcitonin receptor co-expressed with RAMP-3) (human, UniProt P30988 25-474; O60896 24-148, limits assumed); test: cell-based or functional assay
T1 sequence (looked up) 1: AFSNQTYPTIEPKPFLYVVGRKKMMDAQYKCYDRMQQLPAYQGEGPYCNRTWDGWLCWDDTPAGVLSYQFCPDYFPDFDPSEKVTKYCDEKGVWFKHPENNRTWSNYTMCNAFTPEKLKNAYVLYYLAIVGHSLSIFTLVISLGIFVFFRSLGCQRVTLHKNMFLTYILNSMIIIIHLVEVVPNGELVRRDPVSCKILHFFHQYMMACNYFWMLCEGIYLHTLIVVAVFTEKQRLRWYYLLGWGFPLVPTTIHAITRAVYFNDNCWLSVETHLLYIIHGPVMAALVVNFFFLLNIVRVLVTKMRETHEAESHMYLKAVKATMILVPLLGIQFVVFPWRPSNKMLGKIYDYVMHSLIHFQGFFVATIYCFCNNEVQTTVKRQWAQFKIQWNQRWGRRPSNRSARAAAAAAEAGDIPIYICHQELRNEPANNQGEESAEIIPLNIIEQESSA
T1 sequence (looked up) 2: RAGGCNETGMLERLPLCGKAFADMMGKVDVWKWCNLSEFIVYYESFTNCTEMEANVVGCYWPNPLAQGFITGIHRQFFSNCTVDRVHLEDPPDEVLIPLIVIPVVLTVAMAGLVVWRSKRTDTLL

[2] = target: T2, human calcitonin receptor (human, UniProt P30988 25-474); test: cell-based or functional assay
T2 sequence (looked up): T1 sequence (looked up) 1

[3] = target: T3, human amylin receptor (amylin 3(a) receptor: human calcitonin receptor with RAMP-3) (human, UniProt P30988 25-474; O60896 24-148); test: SPA displacement of 125I-rat amylin, hAmylin 3(a) receptor membranes
T3 construct: whole, on cells; also called hAmylin-R; hAmylinR
T3 sequence (looked up) 1: T1 sequence (looked up) 1
T3 sequence (looked up) 2: T1 sequence (looked up) 2
In short: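 SPA beads + BHK amylin 3(a)/CRE-luc membranes, 35 ng/μL final; buffer 50 mM Hepes pH 7.4, 1 mM CaCl2, 5 mM MgCl₂, 0.1% OA, 0.02% Tween20. 120 min, 25° C, shaken; scintillation count. IC₅₀ by one-site binding competition fit, taken as receptor affinity.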

B1: N^α1-[2-[2-[2-[[2-[2-[2-[[(4S)-4-carboxy-4-(19-carboxynonadecanoylamino)butanoyl]amino]ethoxy]ethoxy]acetyl]amino]ethoxy]ethoxy]acetyl]-[Glu14,Arg17,Pro21,Pro27 … (peptide)
peptide: KCNTATCATQRLAEFLRHSSPNFGAIPSSTNVGSNTY
modifications: alpha-amino group of N-terminal Lys1 acylated with C20 diacid via linker gGlu-2xOEG; disulfide bridge Cys2-Cys7 and C-terminal amide as in human amylin
notes: also called compound 19
Ratio hCT/hAmylin funct. (hCTR EC50 over hAmylin-R EC50) [1]: 17.4
hAmylin-R funct. EC50 (pM) [1]: 307 pM

B2: N^α1-[(4S)-4-carboxy-4-(19-carboxynonadecanoylamino)butanoyl]-[Arg17,Pro21,Pro27,His34]-h-amylin (peptide)
peptide: B1 peptide with E14N, S34H
modifications: alpha-amino group of N-terminal Lys1 acylated with C20 diacid via linker gGlu; disulfide bridge Cys2-Cys7 and C-terminal amide as in human amylin
notes: also called compound 40
Ratio hCT/hAmylin funct. (hCTR EC50 over hAmylin-R EC50) [1]: 16.4
hAmylin-R funct. EC50 (pM) [1]: 164 pM

B3: N^ε1-[2-[2-[2-[[2-[2-[2-[[(4S)-4-carboxy-4-(19-carboxynonadecanoylamino)butanoyl]amino]ethoxy]ethoxy]acetyl]amino]ethoxy]ethoxy]acetyl]-[Arg17,Pro21,Pro27,Glu35 … (peptide)
peptide: K([AEEA-AEEA-γGlu-C20 diacid])CNTATCATQRLANFLRHSSPNFGAIPSSTNVGSETY-NH2
modifications: disulfide 2-7; N-terminus assumed
SMILES: CC[C@H](C)[C@H](NC(=O)[C@H](C)NC(=O)CNC(=O)[C@H](Cc1ccccc1)NC(=O)[C@H](CC(N)=O)NC(=O)[C@@H]1CCCN1C(=O)[C@H](CO)NC(=O)[C@H](CO)NC(=O)[C@H](Cc1c[nH]cn1)NC(=O)[C@H](CCCNC(=N)N)NC(=O)[C@H](CC(C)C)NC(=O)[C@H](Cc1ccccc1)NC(=O)[C@H](CC(N)=O)NC(=O)[C@H](C)NC(=O)[C@H](CC(C)C)NC(=O)[C@H](CCCNC(=N)N)NC(=O)[C@H](CCC(N)=O)NC(=O)[C@@H](NC(=O)[C@H](C)NC(=O)[C@@H]1CSSC[C@H](NC(=O)[C@@H](N)CCCCNC(=O)COCCOCCNC(=O)COCCOCCNC(=O)CC[C@H](NC(=O)CCCCCCCCCCCCCCCCCCC(=O)O)C(=O)O)C(=O)N[C@@H](CC(N)=O)C(=O)N[C@@H]([C@@H](C)O)C(=O)N[C@@H](C)C(=O)N[C@@H]([C@@H](C)O)C(=O)N1)[C@@H](C)O)C(=O)N1CCC[C@H]1C(=O)N[C@@H](CO)C(=O)N[C@@H](CO)C(=O)N[C@H](C(=O)N[C@@H](CC(N)=O)C(=O)N[C@H](C(=O)NCC(=O)N[C@@H](CO)C(=O)N[C@@H](CCC(=O)O)C(=O)N[C@H](C(=O)N[C@@H](Cc1ccc(O)cc1)C(N)=O)[C@@H](C)O)C(C)C)[C@@H](C)O
notes: also called compound 25
Ratio hCT/hAmylin funct. (hCTR EC50 over hAmylin-R EC50) [1]: 46.2
hAmylin-R funct. EC50 (pM) [1]: 217 pM

B4: N^ε1-[2-[2-[2-[[(4S)-4-carboxy-4-(19-carboxynonadecanoylamino)butanoyl]amino]ethoxy]ethoxy]acetyl]-[Ala14,Arg17,Pro21,Pro27,Pro31]-h-amylin (peptide)
peptide: K([AEEA-γGlu-C20 diacid])CNTATCATQRLAAFLRHSSPNFGAIPSSTPVGSNTY-NH2
modifications: disulfide 2-7; N-terminus assumed
SMILES: CC[C@H](C)[C@H](NC(=O)[C@H](C)NC(=O)CNC(=O)[C@H](Cc1ccccc1)NC(=O)[C@H](CC(N)=O)NC(=O)[C@@H]1CCCN1C(=O)[C@H](CO)NC(=O)[C@H](CO)NC(=O)[C@H](Cc1c[nH]cn1)NC(=O)[C@H](CCCNC(=N)N)NC(=O)[C@H](CC(C)C)NC(=O)[C@H](Cc1ccccc1)NC(=O)[C@H](C)NC(=O)[C@H](C)NC(=O)[C@H](CC(C)C)NC(=O)[C@H](CCCNC(=N)N)NC(=O)[C@H](CCC(N)=O)NC(=O)[C@@H](NC(=O)[C@H](C)NC(=O)[C@@H]1CSSC[C@H](NC(=O)[C@@H](N)CCCCNC(=O)COCCOCCNC(=O)CC[C@H](NC(=O)CCCCCCCCCCCCCCCCCCC(=O)O)C(=O)O)C(=O)N[C@@H](CC(N)=O)C(=O)N[C@@H]([C@@H](C)O)C(=O)N[C@@H](C)C(=O)N[C@@H]([C@@H](C)O)C(=O)N1)[C@@H](C)O)C(=O)N1CCC[C@H]1C(=O)N[C@@H](CO)C(=O)N[C@@H](CO)C(=O)N[C@H](C(=O)N1CCC[C@H]1C(=O)N[C@H](C(=O)NCC(=O)N[C@@H](CO)C(=O)N[C@@H](CC(N)=O)C(=O)N[C@H](C(=O)N[C@@H](Cc1ccc(O)cc1)C(N)=O)[C@@H](C)O)C(C)C)[C@@H](C)O
notes: also called compound 72
Ratio hCT/hAmylin funct. (hCTR EC50 over hAmylin-R EC50) [1]: 44.9
hAmylin-R funct. EC50 (pM) [1]: 106 pM

B5: N^ε1-[(4S)-4-carboxy-4-[[(4S)-4-carboxy-4-(19-carboxynonadecanoylamino)butanoyl]amino]butanoyl]-[Asp14,Arg17,Pro21,Pro27,Arg35]-h-amylin (peptide)
peptide: K([γGlu-γGlu-C20 diacid])CNTATCATQRLADFLRHSSPNFGAIPSSTNVGSRTY-NH2
modifications: disulfide 2-7; N-terminus assumed
SMILES: CC[C@H](C)[C@H](NC(=O)[C@H](C)NC(=O)CNC(=O)[C@H](Cc1ccccc1)NC(=O)[C@H](CC(N)=O)NC(=O)[C@@H]1CCCN1C(=O)[C@H](CO)NC(=O)[C@H](CO)NC(=O)[C@H](Cc1c[nH]cn1)NC(=O)[C@H](CCCNC(=N)N)NC(=O)[C@H](CC(C)C)NC(=O)[C@H](Cc1ccccc1)NC(=O)[C@H](CC(=O)O)NC(=O)[C@H](C)NC(=O)[C@H](CC(C)C)NC(=O)[C@H](CCCNC(=N)N)NC(=O)[C@H](CCC(N)=O)NC(=O)[C@@H](NC(=O)[C@H](C)NC(=O)[C@@H]1CSSC[C@H](NC(=O)[C@@H](N)CCCCNC(=O)CC[C@H](NC(=O)CC[C@H](NC(=O)CCCCCCCCCCCCCCCCCCC(=O)O)C(=O)O)C(=O)O)C(=O)N[C@@H](CC(N)=O)C(=O)N[C@@H]([C@@H](C)O)C(=O)N[C@@H](C)C(=O)N[C@@H]([C@@H](C)O)C(=O)N1)[C@@H](C)O)C(=O)N1CCC[C@H]1C(=O)N[C@@H](CO)C(=O)N[C@@H](CO)C(=O)N[C@H](C(=O)N[C@@H](CC(N)=O)C(=O)N[C@H](C(=O)NCC(=O)N[C@@H](CO)C(=O)N[C@@H](CCCNC(=N)N)C(=O)N[C@H](C(=O)N[C@@H](Cc1ccc(O)cc1)C(N)=O)[C@@H](C)O)C(C)C)[C@@H](C)O
notes: also called compound 52
hCTR funct. EC50 [2]: 14.1 nM

B6: N^ε1-[(4S)-4-carboxy-4-(19-carboxynonadecanoylamino)butanoyl]-[Arg17,Pro21,Pro27]-h-amylin (peptide)
peptide: K([γGlu-C20 diacid])CNTATCATQRLANFLRHSSPNFGAIPSSTNVGSNTY-NH2
modifications: disulfide 2-7; N-terminus assumed
SMILES: CC[C@H](C)[C@H](NC(=O)[C@H](C)NC(=O)CNC(=O)[C@H](Cc1ccccc1)NC(=O)[C@H](CC(N)=O)NC(=O)[C@@H]1CCCN1C(=O)[C@H](CO)NC(=O)[C@H](CO)NC(=O)[C@H](Cc1c[nH]cn1)NC(=O)[C@H](CCCNC(=N)N)NC(=O)[C@H](CC(C)C)NC(=O)[C@H](Cc1ccccc1)NC(=O)[C@H](CC(N)=O)NC(=O)[C@H](C)NC(=O)[C@H](CC(C)C)NC(=O)[C@H](CCCNC(=N)N)NC(=O)[C@H](CCC(N)=O)NC(=O)[C@@H](NC(=O)[C@H](C)NC(=O)[C@@H]1CSSC[C@H](NC(=O)[C@@H](N)CCCCNC(=O)CC[C@H](NC(=O)CCCCCCCCCCCCCCCCCCC(=O)O)C(=O)O)C(=O)N[C@@H](CC(N)=O)C(=O)N[C@@H]([C@@H](C)O)C(=O)N[C@@H](C)C(=O)N[C@@H]([C@@H](C)O)C(=O)N1)[C@@H](C)O)C(=O)N1CCC[C@H]1C(=O)N[C@@H](CO)C(=O)N[C@@H](CO)C(=O)N[C@H](C(=O)N[C@@H](CC(N)=O)C(=O)N[C@H](C(=O)NCC(=O)N[C@@H](CO)C(=O)N[C@@H](CC(N)=O)C(=O)N[C@H](C(=O)N[C@@H](Cc1ccc(O)cc1)C(N)=O)[C@@H](C)O)C(C)C)[C@@H](C)O
notes: also called 48; compound 48
IC50 [3]: 0.443 nM
